# Data as given in US20200055937A1 (REMD BIOTHERAPEUTICS, published 2020).
# T1: CTLA4-Fc (UniProt P16410 36-161, limits assumed)
# T1 sequence (looked up): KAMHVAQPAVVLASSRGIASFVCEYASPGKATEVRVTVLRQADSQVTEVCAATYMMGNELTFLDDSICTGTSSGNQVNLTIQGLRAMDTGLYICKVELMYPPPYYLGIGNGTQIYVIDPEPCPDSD
# T2: cyno Macaque CTLA-4 (cyno Macaque, UniProt G7PL88 36-161)
# T2 construct: ELISA antigen; construct not described; also called CynoCTLA-4; cyno CTLA-4
# T2 sequence: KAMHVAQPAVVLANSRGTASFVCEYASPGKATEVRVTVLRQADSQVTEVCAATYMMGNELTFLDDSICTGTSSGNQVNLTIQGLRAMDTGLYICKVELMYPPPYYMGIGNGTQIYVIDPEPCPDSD
# T3: human CTLA-4 (human, UniProt P16410 36-161, limits assumed)
# T3 construct: also called HuCTLA-4; human cytotoxic T lymphocyte antigen-4
# T3 sequence: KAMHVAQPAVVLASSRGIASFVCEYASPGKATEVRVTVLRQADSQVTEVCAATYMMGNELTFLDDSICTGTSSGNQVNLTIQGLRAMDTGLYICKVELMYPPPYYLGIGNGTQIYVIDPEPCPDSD
# T4: CTLA4-his (UniProt P16410 36-161, limits assumed)
# T4 construct: construct not described; also called Ag CTLA4-his; Antigen CTLA4-his; not shown: his tag
# T4 sequence (looked up): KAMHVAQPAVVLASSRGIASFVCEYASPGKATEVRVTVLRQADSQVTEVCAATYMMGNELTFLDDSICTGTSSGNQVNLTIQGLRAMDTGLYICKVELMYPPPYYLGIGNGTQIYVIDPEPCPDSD
# Legend:
# CTLA4-Fc [1] = target: T1, CTLA4-Fc; experiment: cell-based or functional assay
# cyno Macaque CTLA-4 = target: T2, cyno Macaque CTLA-4; experiment: ELISA, cyno CTLA-4 binding
# human CTLA-4 [2] = target: T3, human CTLA-4; experiment: ELISA, human CTLA-4 binding
# murine CTLA-4 = target: T5, murine CTLA-4 (murine, UniProt P09793 36-161, limits assumed); experiment: ELISA, murine CTLA-4 binding assay
# T5 construct: ELISA antigen; construct not described; also called mouse CTLA-4
# human CTLA-4 [3] = target: T3, human CTLA-4; experiment: ligand blocking assay with purified proteins; competitor CD86
# human CTLA-4 [4] = target: T3, human CTLA-4; experiment: ratio of the IC50 for blocking CD80 to the IC50 for blocking CD86 on CTLA-4
# human CTLA-4 [5] = target: T3, human CTLA-4; experiment: ligand blocking assay with purified proteins; competitor CD80; CD80 as competing ligand, purified proteins
# human CTLA-4 [6] = target: T3, human CTLA-4; experiment: ligand blocking assay with purified proteins; competitor CD80
# CTLA4-Fc [7] = target: T1, CTLA4-Fc; experiment: SPR Biacore T200, CTLA4-Fc amine-coupled, antibody as analyte
# Experimental: (§1) Antigen CTLA4-Fc was immobilized on the sensor chip through amine coupling method. Antibody was used as the analyte. The data of dissociation (kd) and association (kₐ) rate constants were obtained using Biacore T200 evaluation software. The apparent equilibrium dissociation constants (KD) were calculated from the ratio of kd over kₐ.
# CTLA4-Fc [8] = target: T1, CTLA4-Fc; experiment: SPR Biacore T200, CTLA4-Fc amine-coupled, antibody as analyte; apparent KD
# Experimental: as §1
# CTLA4-his [9] = target: T4, CTLA4-his; experiment: SPR Biacore 8k, purified antibody captured on chip, CTLA4-his as analyte (as the text says; same values as Table 5)
# CTLA4-Fc [10] = target: T1, CTLA4-Fc; experiment: cell-based or functional assay; remark: listed apart in the source
# CTLA4-his [11] = target: T4, CTLA4-his; experiment: SPR Biacore 8k, purified antibody captured on chip, CTLA4-his as analyte
# Experimental: (§2) The affinities of purified antibody binding to CTLA4-his was determined using a Surface Plasmon Resonance (SPR) biosensor, Biacore 8k. Antibodies were immobilized on the sensor chip through capture method. Antigen CTLA4-his was used as the analyte. The data of dissociation (kd) and association (ka) rate constants were obtained using Biacore 8k evaluation software. The equilibrium dissociation constants (KD) were calculated from the ratio of kd over ka.
# CTLA4-his [12] = target: T4, CTLA4-his; experiment: SPR Biacore T200, antibody from supernatant captured by anti-human Fc, CTLA4-his injected
# Experimental: (§3) Affinity ranking of the fifteen humanized antibodies was determined using a Surface Plasmon Resonance (SPR) biosensor, Biacore T200 (GE Healthcare). Anti-human Fc gamma specific antibody was immobilized onto the sensor chip using amine coupling method. […] After equilibration, Ag CTLA4-his was injected for 300 seconds (association phase) followed by the injection of running buffer for 600s (dissociation phase). Responses of reference flow cell (flow cell 1) were subtracted from those of humanized antibodies flow cells during each cycle. The surface was regenerated before the injection of other humanized antibodies. The process was repeated until all antibodies are analyzed. The off-rates of humanized antibodies were obtained from fitting the experimental data locally to 1:1 interaction model using the Biacore 8K evaluation software. The antibodies were ranked by their dissociation rate constants (off-rates, kd).
# CTLA4-his [13] = target: T4, CTLA4-his; experiment: SPR Biacore T200, antibody from supernatant captured by anti-human Fc, CTLA4-his injected; supernatant antibody, off-rate ranking, 600 s dissociation
# Experimental: as §3
# CTLA4-his [14] = target: T4, CTLA4-his; experiment: SPR Biacore 8k, purified antibody captured on chip, CTLA4-his as analyte; purified antibody, Biacore 8k
# Experimental: as §2
"IC50 (nM), IL-2 secreted by Jurkat cells co-cultured with CHO/CD80 cells, Experiment 1 (CTLA4-Fc [1]) [nM]","IC50 (nM), IL-2 secreted by Jurkat cells co-cultured with CHO/CD80 cells, Experiment 2 (CTLA4-Fc [1]) [nM]",EC50 (cyno Macaque CTLA-4) [nM],EC50 (human CTLA-4 [2]) [nM],binding result (murine CTLA-4),IC50 (human CTLA-4 [3]) [nM],CD80/CD86 Blocking Ratio (human CTLA-4 [4]),koff (CTLA4-Fc [7]) [s⁻¹],kon (CTLA4-Fc [7]) [M⁻¹ s⁻¹],Kd (CTLA4-Fc [8]) [nM],Kd (CTLA4-his [11]) [nM],kon (CTLA4-his [11]) [M⁻¹ s⁻¹],Kd (CTLA4-his [12]) [nM],kon (CTLA4-his [12]) [M⁻¹ s⁻¹],Binder,also measured
11,13.2,0.024,0.034,no binding,0.287,2.01,0.000551,573000,0.963,–,–,–,–,"MAb A4 (13F10D7) (antibody, V domains shown, also called Murine MAb A4; murine antibody A4) VH: EVQLRQSGPELVKPGTSVKISCKASGYKFTDHFINWVKQNHGKSLEWIGDINPNNGGTNSNQKFEGKATLTVDKSSSTAYMELRSLTSEDSAVYYCARLRREYFYAMDYWGQGTSVTVSS VL: DIVMTQAAFSNPVTLGTSASISCRSSKSLLHSNGITYLYWYLQKPGQSPQLLIYQMSNLASGVPDRFSSSGSGTDFTLRISRVEAEDVGVYYCAQNLELPLTFGAGTKLELK",IC50 (human CTLA-4 [6]): 0.579 nM; Kd (CTLA4-his [9]): 0.963 nM; koff (CTLA4-his [9]): 0.000551 s⁻¹; kon (CTLA4-his [9]): 573000 M⁻¹ s⁻¹
–,–,–,–,–,–,–,5.09e-05,621000,0.082,0.0131,765000,0.0602,430000,"chimeric IgG (antibody, V domains shown, Variable domains of MAb A4 on human IgG1 and kappa, expressed in HEK293; also called murine-human chimeric antibody derived from murine antibody A4) VH: EVQLRQSGPELVKPGTSVKISCKASGYKFTDHFINWVKQNHGKSLEWIGDINPNNGGTNSNQKFEGKATLTVDKSSSTAYMELRSLTSEDSAVYYCARLRREYFYAMDYWGQGTSVTVSS VL: DIVMTQAAFSNPVTLGTSASISCRSSKSLLHSNGITYLYWYLQKPGQSPQLLIYQMSNLASGVPDRFSSSGSGTDFTLRISRVEAEDVGVYYCAQNLELPLTFGAGTKLELKR",koff (CTLA4-his [12]): 2.59e-05 s⁻¹; koff (CTLA4-his [14]): ≤ 1e-05 s⁻¹

# Further lines, the binder ahead of its results:
Binder,"IC50 (nM), IL-2 secreted by Jurkat cells co-cultured with CHO/CD80 cells, Experiment 1 (CTLA4-Fc [1]) [nM]","IC50 (nM), IL-2 secreted by Jurkat cells co-cultured with CHO/CD80 cells, Experiment 2 (CTLA4-Fc [1]) [nM]",EC50 (cyno Macaque CTLA-4) [nM],EC50 (human CTLA-4 [2]) [nM],binding result (murine CTLA-4),IC50 (human CTLA-4 [3]) [nM],CD80/CD86 Blocking Ratio (human CTLA-4 [4]),koff (CTLA4-Fc [7]) [s⁻¹],kon (CTLA4-Fc [7]) [M⁻¹ s⁻¹],Kd (CTLA4-Fc [8]) [nM],Kd (CTLA4-his [11]) [nM],kon (CTLA4-his [11]) [M⁻¹ s⁻¹],Kd (CTLA4-his [12]) [nM],kon (CTLA4-his [12]) [M⁻¹ s⁻¹],also measured
"MAb A1 (16A9E9) (antibody, V domains shown, also called murine antibody A1) VH: DVQLQESGPGLVKPSQSLSLTCSVTGDSITSGYYWNWIRQFPGNKLEWMGYISYDGINNYYPSLENRISITRDTSRNQFFLKLNSVTTEDTATYYCAREVVTPGVEVPAWYFDVWGTGTTVTVSS VL: DIVLTQSPTSLTVSLGQRAIISCKASQSVSFAGTGLMHWYQQKPGQQPKLLIYRASNLEAGVPTRFSGSGSRTDFTLNIHPVEEDDAATYYCQQSREYPWTFGGGTTLEIN",19.3,18.5,0.01,0.058,no binding,0.365,6.49,–,–,–,–,–,–,–,IC50 (human CTLA-4 [5]): 2.37 nM
"Humanized Ab 15 (VH7 + VL3) (antibody, human IgG1, kappa, V domains shown, Humanized IgG1 derived from MAb A4) VH: QVQLVQSGAEVVKPGASVKISCKASGYKFTDHFINWVKQNPGQGLEWIGDINPNNGGTNSNQKFEGKATLTVDKSISTAYMELRRLRSDDTAVYYCARLRREYFYAMDYWGQGTLVTVSS VL: DIVMTQSPLSLPVTPGEPASISCRSSKSLLHSNGITYLYWYLQKPGQSPQLLIYQMSNLASGVPDRFSSSGSGTDFTLKISRVEAEDVGVYYCAQNLELPLTFGGGTKLEIKR",–,–,–,–,–,–,–,–,–,–,0.0142,727000,≤ 0.0472,212000,"IC50 (nM), Jurkat cell activation assay of Example 2 (IL-2) (CTLA4-Fc [10]): 3.1 nM; koff (CTLA4-his [11]): 1.03e-05 s⁻¹; koff (CTLA4-his [13]): ≤ 1e-05 s⁻¹"
